Source: PMC4592898, “Biochemical Characterisation of Phage Pseudomurein Endoisopeptidases PeiW and PeiP Using Synthetic Peptides” (Archaea, 2015)

Legend:
purified protein [1] = substrate: C[C@H](NC(=O)CC[C@H](N)C(=O)O)C(=O)Nc1ccc([N+](=O)[O-])cc1; test: purified protein; assay type: biochemical, Methanothermobacter phage psiM100; settings: 60 °C, pH 7.85 Bistris propane, 10 mM CaCl2, 10 mM TCEP, aerobic, substrate range limited to about 1 x Km
purified protein [2] = substrate: C[C@H](NC(=O)CC[C@H](N)C(=O)O)C(=O)Nc1ccc([N+](=O)[O-])cc1; test: purified protein; assay type: biochemical, Methanobacterium phage psiM2; settings: 60 °C, pH 7.85 Bistris propane, 10 mM CaCl2, 10 mM TCEP, aerobic, substrate range below Km

Row | Protein | Km (purified protein [1]) | kcat (purified protein [1]) | Km (purified protein [2]) | kcat (purified protein [2])
1 | PeiW (Methanothermobacter phage psiM100) (protein, N-terminal His-tag kept, pET151D, E. coli BL21-Rosetta 2; 317 residues and 37,219 Da with tag; monomer) MEVGLNEFLDMKKRYEDFKMKNKREPRYVTTKNGYKVMLPVFKDMLRRYEDFVRINGREPNYISIQPQPNGKIEIKKFRDMLRRYEDFVRINGREPNIIYLEQGKSDHVSLGTFKDMLRRYKDFVRINGREPNYISIQPQPSLKGHWTTKVIEKIGTFHDATSLYERVKKTCKYKYYYNDQVPNHVAVMRMTTSGINCTDACQLFSKVLEEMGYEVKIEHVRVKCNDGKWYGHYLLRVGGFELKDGTIWDYVSATKTGRPLGVPCCTAGFQHLGWGIVGPVYDK | 6.25 ± 0.44 mM | 5.73 ± 0.22 s⁻¹ | – | –
2 | PeiP (Methanobacterium phage psiM2) (protein, N-terminal His-tag kept, pET151D, E. coli BL21-Rosetta 2; 338 residues and 39,537 Da with tag; monomer) MRSNSVNIETFKDMLKRYEDFKMKNKREPRVIFIRSGGGESIPLETFRDMVRRYNNFKDRYGREPRIVYVTPPEPPVPEVNENTPEYVSITQFKDMLSRYNRFKEVNGREPRVVFIYSGGGPSVSLETFKDMCKRYNQFLEENRREPRIVYVTPPEPPVPEEVREMRRVLGEFKTATQLYTLVSRRCKYKFYYNDQTPNREALKKMVTDGINCTDACQLFKPVIEGLGYSVRIEHVKVRCNDNKWYGHYFLRVAGKELASVSLPSERWTVWDYVSATKTGRPLGAPCCSRGIQHLGWGIVSPKHD | – | – | 4.14 ± 0.14 mM | 1.18 ± 0.03 s⁻¹
